US20190031754A1

Target: hFc-hROR2-T245 (recombinant human ROR2 extracellular domain fused to human Fc) (human) (UniProt Q01974)
Assay: SPR (Biacore X100), hFc-hROR2 captured by anti-human Fc on CM5, Fab as analyte, 1:1 Langmuir model

Sequence of hFc-hROR2-T245 (recombinant human ROR2 extracellular domain fused to human Fc) (human) (Q01974 55-394 limits assumed, form in doubt): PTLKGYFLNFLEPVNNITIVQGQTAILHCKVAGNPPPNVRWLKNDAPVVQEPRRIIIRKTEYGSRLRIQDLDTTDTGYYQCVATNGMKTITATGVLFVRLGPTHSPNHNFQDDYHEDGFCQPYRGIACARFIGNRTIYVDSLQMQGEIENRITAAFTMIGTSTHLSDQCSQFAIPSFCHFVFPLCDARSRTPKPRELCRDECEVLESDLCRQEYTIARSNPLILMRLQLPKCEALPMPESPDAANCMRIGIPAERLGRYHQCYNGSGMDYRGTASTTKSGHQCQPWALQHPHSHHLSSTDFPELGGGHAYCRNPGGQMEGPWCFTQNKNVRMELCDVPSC

Binder	koff [s⁻¹]	kon [M⁻¹ s⁻¹]	Kd [nM]
chimeric rabbit/human Fab ERR2-302 (Fab, V domains shown) VH: QKQLVESGGGLVKPGGSLTLTCTVSGFSLSSYAIGWVRQAPGNGLEWIGIINSYGSTYYASWAKSRSTITRNTNLNTVTLKMTSLTAADTATYFCARSPYGYVSAWGYHRLDLWGQGTLVTISS VL: SYELTQLPSVSVSLGQTARITCGGASIGSKVVHWYQQKPGLAPGLLIYDDDERPSGVPDRFSGSNSGDTATLTISGAQAGDEAEYYCQLWDGSDVVFGGGTQLTVTG	0.00544	104000	52.5
chimeric rabbit/human Fab ERR2-308 (Fab, V domains shown) VH: QEQLEESGGRLVTPGTPLTLTCAVSGFSLSNYAMGWVRQAPGEGLEYIGWISAGGGAYYASWVNGRFTISKTSSTVDLKMTSLTAADTATYFCARGASNGCDLWGPGTLVTVSS VL: DPMLTQTPSSVSAVVGGTVTIKCQASQSITSWLSWYQQKPGQPPKLLIYGASHLASGVPSRFKGSGYGTEFTLTISGIQREDAATYYCLGGYSNSDIVFGGGTELEIL	0.000286	27100	
chimeric rabbit/human Fab ERR2-TOP2 (Fab, V domains shown) VH: QSLEESGGRLVTPGTPLTLTCTVSGFSLSSYAISWVRQAPGKGLEWIGTIGTRGDTAYANWAKGRFTISKTSTTVTLKMTSPTTEDTATYFCARELVAGGGSDLWGPGTLVTVSS VL: DVVMTQTPSSVSAVVGGTVTIKCQASQSITSWLSWYQQKPGQPPKLLIYGASHLASGVPSRFKGSGYGTEFTLTISGIQREDAATYYCLGGYLSASYQTAFGGGTKVEIK	0.00242	29800	
chimeric rabbit/human Fab ERR2-316 (Fab, V domains shown) VH: QKQLVESGGRLVTPGGSLTLTCTVSGFSLSKYGVSWVRQAPGSGLEYIGTIGGSGTSYYASWAKSRSTITRNTNLNTVTLKMTSLTAADTATYFCARYFGWNTGFDIWGPGTLVTISS VL: DPVMTQTPSSVSEPVGGTVTIKCQASQSISNALAWYQQKPGQPPKRLIYKASTPASGVPSRFKGSRSGTEYTLTISGVQREDAATYYCLGFSVVSNDGWAFGAGTNVEIK	0.0178	3.34e+06	
chimeric rabbit/human Fab ERR2-317 (Fab, V domains shown) VH: QSLEESGGRLVTPGTPLTLTCTASGFSLSSYDMIWVRQAPGKGLEYIGIINAGGNTYYASWAKGRFTISRTSTTVDLKMTSPTTEDTATYFCARGSSWTGDIWGPGTLVTVSS VL: DPVLTQTPSSTSAAVGGTVTIKCQASQSISSYLSWYQQKPGQPPKQLIYAASTLASGVPSRFKGSGSGTEYTLTISGVQREDAATYYCLGGYASASYQTAFGGGTKVEIK	0.0132	83500	
chimeric rabbit/human Fab ERR2-TOP35 (Fab, V domains shown) VH: QSVKESEGGLFKPMDTLTLTCTVSGFSLNTYGVSWVRQAPGNGLEWIGAVGSSGATNYASWAKSRSTITRNTNENTVTLKMTSLTAADTATYFCARDGYYSSGWGPYFSIWGPGTLVTVSS VL: SFVLTQPASVQVNLGQTVSLTCTAETLRSSYASWYQQKPGQAPVLLIYRDTSRPSGVPDRFSGSSSGNTATLTISGAQAGDEADYYCATSDGSGSRYYVFGGGTQLTVTG	0.00851	197000	43.3

Continued, values first:

koff [s⁻¹]	kon [M⁻¹ s⁻¹]	Kd [nM]	Binder
0.0467	328000		chimeric rabbit/human Fab XBR2-TOP9 (Fab, V domains shown) VH: QSVEESRGRLVTPGTPLTLICTVSGIDLSSYNIQWVRQAPGKGLEYIGYINTDGSAYYASWAKGRFTISKTSTTVDLKITSPTTEDTATYFCARGGYASGFNLWGPGTLVTISS VL: DVVMTQTPSSTSAAVGGTVTIKCQASQNIGPWLSWYQQKPGQPPKQLIYAASTLASGVPSRFKGSGSGTDYTLTISGVQREDAATYYCLGWHSWSDDGWAFGAGTNVEIK
0.154	37000	4150	chimeric rabbit/human Fab XBR2-TOP72 (Fab, V domains shown) VH: QEQLEESGGRLVTPGTPLTLTCTVSGIDLSSNAMSWVRQAPGKGLEYVGFINGGGGVHYASWARGRFTISKTSTTVDLKITSPTTEDTATYFCARAGTTYYTSFNLWGPGTLVTISS VL: QFVLTQSPSASAALGSSAKLTCTLSSAHKTYTIAWYQQQQGEAPRLLMMLRTDGSYTKGTGVPDRFSGSSSGADRYLIISSVQADDAAGYYCGADYSGGYVFGGGTQLTVTG
0.00546	95600	57.2	chimeric rabbit/human Fab XBR2-327 (Fab, V domains shown) VH: QEQLKESGGGLFKPTDTLTLTCTVSGFSLSSGAISWVRQAPGNGLEYIGFVNSLGNTYYANWAKSRSAITRNTNENTVTLKMTSLAAADTATYFCAKDYGNWAFDPWGPGTLVTVSS VL: DPVLTQTPSSVSAAVGGTVAINCQASQSISSYLSWYQQKPGQPPKLLIYGASKLASGVPSRFSGSGSGTEYTLTISGVQREDAATYYCLGGYASASYRTAFGGGTKLEIK
0.0173	49800		chimeric rabbit/human Fab XBR2-416 (Fab, V domains shown) VH: QEQLEESGGRLVTPGTPLTLTCTVSGFSLSSYWMSWVRQAPGKGLEWIGTITPGGNTDYATWAKARFTVSKTSTTVDLKITSPTTEDTATYFCARGIGGAADLWGPGTLVTISS VL: AQVLTQTPSSTSAAVGGTVTIKCQASQSISSSDLSWYQQKPGQPPKLLIYATSYLASGVPSRFKGSGSGTEYTLTISGVQREDAATYYCLGGYPNTSYRSAFGGGTKVEIK
0.108	47300	2280	chimeric rabbit/human Fab XBR2-433 (Fab, V domains shown) VH: QSVKESEGGLFKPTDTLTLTCTVSGFSLSTYGVSWVRQAPGNGLEWIGAIGSSGSANYASWAKDRSTITRNTNLNTVTLKMTSLTAADTATYFCARDGYYSSGWGPYFNIWGPGTLVTISS VL: SFVLTQPASVQVNLGQTVSLTCTADTLSRSYASWYQQKPGQAPVLLIYRDTSRPSGVPDRFSGSSSGNTATLTISGAQAGDEADYYCATSGGSGSNPQYVFGGGTQLTVTG
